Test: protease stability score; higher = more stable; yeast display proteolysis, trypsin and chymotrypsin;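 further: relative to predicted unfolded state with 0 unfolded-like and 1 meaning tenfold more protease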

Sequence | protease stability score
DEHEHAFRIIAEMLVEAMKTGNEETFSRLFDPNVRITWNGRHNHGRENYVEFIRQIRVDDLHIVLEDVRVIDGVIEVHGKMRIHGIVNGRRDEFIWESRVVIVKIDGRWHIESIRFD | 1.09
DEHEHFMEYAMKRMLHSWLTGDEHDWHELADPNVKLHIGEYNFIGREEYYRHLHRHLHEAGFKHIKIDHIHVEIQGEKLIFRMDTTIHFNGRKLRVEVIVILFKVNGRWSLHTDEVHIE | 0.931
DEHEHLALRMTTRFTDMLRTGDWENMLRYFDPDARIIIDGRKHHGRERMHEIWREIRVTDLRINRERVRVQGDFVINHIDGEEDVEIGDKRISTRSIIILVVHKIDGRWHMKELEINIV | 0.796
DEHEHLMLKVVLISIRALLTGDEDRFEHLADPHTRVEVNGVERHGREEYRKWLEHIRIKHIEVEESRAQGDFVHLNGRLRVSYGDKRFETETRWDWIIVDGKLKEMRIRIN | 1.26
DEHEHMTELAHRIIMKTWETGDEEEQHRMFDPHARLIIDGKNIHGREQIQREMKRFSEEIRLRDATIHRVEIQGNKVISDWRLRIDVDGREVHFESHVIIRKVNGRWRIDHLILN | 1.21
DEHEHQADHMQEILIRSHETGDEDLIREFFDPHARLDIGDKHNIGRESIKRFIHELLRILGLDNITLRVRHKTIQGDKIITHLELEVNGKRLEVIIHNEKINGQWSVRKVEWR | 1.98
DEHEHVVERMARIQYKEMVTGDEELWYHLADPRVRYEIGDKEIIGREEVFRFIIEHKRDLGISKIDVRIRDIDLQGEWAIIDGTININGRKLETTIHLLVVDGRLKTFSLEIK | 1.33
DEHEKEWQELFRLAAHVLETGDEKMLQHLIDPSARTRINGKYTHGWEESARTLHEIRRRLGIDHEEITDHEIQGDKVIIHGRSQVGDKNFTVNIEWIIVNGRLKSVNFTIH | 0.55
DEHEKHDRELKRIWVELFETGDEDTLIELADPNPRSRVNGKEFHGMEDIVQFLREWKMRIKGVREEIHHVDVINGRVRIDMKRFVGDKEFDVTIHLYVINGRFKQEEVRVH | 0.222
DEHEKIIKHFLELFMWALRTGDEEINRHLVDPNVRVDVNGVILIGREEVVHYLRHLQEKLGMEIEEVRVEDMSVFDGRLHVDMRIHGRIGDKHTTIETHYLILKFDGRWILEHRRIR | 2.37
DEHEMEIRDFIDKFLQSLRTGDEEKVHKLIDPHVRTQIDGQEFHGREEFLRFLRTHLERLGVDHIDVDLQQIEIVGEKINIHGTLTIEIDGRYLRHTFHLRVEKVNGKWIIESIRMT | 2.15
DEHENVMHDAIENIEHMIHTGDEHISERLLDPNVKLDVNGRRFHGWEEFNKWLHHMGADVVDHKRLESQGDKVHTDGRVFFNGREYDSEINSLKVNGRWLITEVRIH | 0.337
DEHEQEANEMMHRSLETLETGDERLLRHMADPNTKVQVGDKTWHGWHLLHEYRKEFRHARIIIREIDIQGEFVFLHGELDVNGKRLERTIIQLKVDGRWILHHMHLR | 0.435
DEHEQFLRDIAIILIHAHLTGDWKRLEEMLDPNVRFEIDINGRSIEQHGRELYLRWVRKIHNEIWFRIEIEDISVINGRASVKVRLDLNVGDKVLHTRIHIEVVVIDGVLRSESIRVR | 2.69
DEHERDAHRFIEHLWRILATGDEEELRKLFDPDAKHHDENELYHGREKVTKFISHRFKHLGIDHVEFRLTDLEVQGDKVISRILVIQRVNGVEYRIDMLFIFHKINGRWLIKSLEVH | 1.36
DEHEREMHRLVDLLIKLLETGDEEISLRLADPHTRHDINGVHDHGRDKWEKSWEEHKKHLGWRIHYRIRDFRTQGDKARMEIQVDLHIGDKNIHLETHLLLISIDGVIKEIRIIIL | 1.39
DEHERLAEIALRLYVHDIRTGDEHRLRKLFDPHVRFVIGDKVYHGWEEMKWILEHIRRELGVKHIKDEDSRHVHLQGDKMYTELRLHVNQGDYETELEVFMVSVKVNGQWLTHSFELR | 1.21
DEHERLLIKIARIITNLLLTGDEDIMEELADPNVRFELDFNGVDIHLIGMDFWRHNLEHWWVDHFRLEDVKIQGDYAHLKLNVHMEINGRRHETHTRLSIVVVNGKLKSMRFHLI | 1.2
DEHETDKQLAIDLLIEVIQTGDEHTTRRLADPNVKVVIDGREFHGRDFLARMIHEMRFHRIHVEEVRVIDGVVHSNLRVRGEYNGKHVDTRSSIHIKKVNGRWVIESVLIE | 2.04
DEHHEEIHRLVEIFLHLELTGDEDTWRELADPTAQIHIDGRDIHGMEDVLRVWEQFKKEMGIDHIRVKDYKVQGNFMHINTELEFNGRRVDSRIEIYIYDGRIKSVIIRYR | 2.25
DEHHEFSRTATEMWIHFMETGDEHDLRNLIDPNVKTKVGDKHHHGREFLVKWLLTFMERADHVEIRLNDIKLQGDKIHIEGRLIIIVGDKEIHIHVERDIIKVNGRWVVHSVIFR | 1.21
DEHHEILDHFLHLWIEALHTGDWKLIEKLIDPHAKLRIHQGDKHIEIHGREEVVRREEEWLRRIKNLRLHIDRIEIQGNKFHMEITLHFDGVTVDSRVILFVYDGQIKHIEIRHN | 2.43
DEHHEILREASELFIKAWLTGDEDTMQEMMDPHTRVVFNGRTHHGWTFASEILERIKNIRIQIDDVRHQGEYVEIHFKLHIDGVRWNTKIHLHVIDGKLKRIQHTTE | 1.01
DEHHEIVRSMSELLTHLHLTGDEEKLSRMADPRVRLDVNGQWFHGREQWEKAFEDFEREMGAKHVKVDHVHVQGNKIILHFHVNVDGVHITVEFDIIIVDGRLKREHIRLK | 0.621
DEHHERARKVAHLFMRIFETGDEDSMNELLDPNVRWVLIYGDKRFELHGWEELDKDIRRYDHHRLEMKHVEIQGNKADNDTRLRLRFDGKDIETETRLHIRVVDGVMKEVTFDIH | 0.364

Sequence | protease stability score
DEHHETLKRMTDQTLHVIHTGDEETWNQLADPNTLIRIIFENREINIHGWHLVVRWLQHLHRELRIEIDIRDIEIQGNKVHVEGELHVHQGEKEINIRIIFHFIVVNGRLRDVTIDFR | 1.3
DEHHEVAHRISTMLTHILMTGNEEWLSHLADPRVRSEIGDFEIHGREHMEELLHRILNKLGADHLRIHHIEIRIQGDFLIVKVHGRTHIGDKTVTHEIIFIIIKINGRWHLHSIWFDFE | 1
DEHHEVSEKVAKLFLEIWETGDWKTLKRLADPRVRTHIIIGDKTINEHGRENYIRSTVEFLERFPNMRYEIREVRVIGDKIETQGEMNVNGKTFDVIIELIIIDGRIKEVRVENR | 1.08
DEHHKHLHHLAEHTLRLIATGDEDRFSDLADPHTRLRVNGVDVIGRELVIELWKRMLEQIRITDVHVKRSVVIDGVVHQDTELHSTVGDKRFELKTKSHIFIINGRIHMVEIQHE | -0.28
DEHHKHVKEMLDLWRRNMETGDWDEIHKLADPHVRMIIFVGDKEIHSHGREEVHRVLEEWIRRMGVDHLVLHDVTLQGNKIIIDTQRNFDGRYLDTSEIIIVVNGRIKEVTFEEK | 0.341
DEHHKILTELMRDALRYEETGDWDETSKLLDPRTRLDFNGVEVIGREAYEHLLRFLGIKVFRETDMEVQGDKIKLNGRSNFNGRETEHYIYALKVDGRWILRSVEFK | 1.3
DEHHRLARDFWKMLADILKTGDEEIFRDLADPDTRMIQGDKLYHGRELISRELVRQVKEWRLHDFELHHIDEVNGRLLVDSRLVGHFDGRHYLMHVRIFMHKVDGRWVLHEMHYE | 1.38
DEHHRWLEQALHLWIHTILTGDEKVLHELFDPDVRLNVDGQDFHGRELMIKWFHDILRKFKNIRIKHIHIEDRRYYDGRLEIHTSVNVEFNGRPHEEKYRIIAFKIDGRWRLKEEEFH | 1.8
DEHKDLAHKAITNFIEWTETGDFEMFLKLFDPNMRLRVDGQHHHGWHDVFRVFREMGYEIKSVKMDDVEIQGEKITVDLRVHVDINGQHEDIKTRYFFSKYDGKWIIEQIQVV | -0.276
DEHKEEFREWVERLEHVLKTGNEDELHELADPDVKVRIGDKEIHGMHEVLRFILEFYKKLGIDHRHLRIDDYRVQGDFLHIDGHLELTFNGRKHTHQLHIVVLKVNGRWILKEIRVS | 2.25
DEHKEEIKKFIEEWERSMITGDEDRLWELADPNTRLRQGEFEIHGMEILIEAEHRIVEKYKGLTIESIEMKHIDIINGVVVLYSKIRVRQGDKETEIFIIIYIIKINGQWRLHSLEIR | 1.34
DEHKEILREYAKKFLNDVMTGDEDEIEHLADPHARVEIGDKDIHGWEQWIKHLSRTWKELRIEDYRIRSIELVNGVVHLDTHLHIRIGDKRFDTQVEIHLVVINGKVKSVRVDIR | 1.12
DEHKELHERLLKMWLSIWETGDEERLRRNADPDTRFKHDFNGREETVVGRENVAKVLEDLRRELGIDHVHIRHFDVQGNYVDLTTELHFNGRIVNFHIIIRVVNGKLKEIHFELR | 1.26
DEHKEQLRRIFELMLHLFLTGDWKQLWELADPHARFRIDGRDIHGRDNFAEEVKRIVDEWRIHIDPRHIDVFDGVNHVRTDLFFEYDGRKLRHHTRVINIVVDGRLKEVEFRIE | 1.36
DEHKESLKRAFELWVETVKTGDEQRTEELIDPHVRVVIGDKEIHGMKETSRHILEMRVKSFRLRHYHFVNGRVNILGEIDGEFDGRRRDVDITIHIQKFNGRWLIDELHFG | 2.27
DEHKHIAEEIARIVLENWMTGNEEIFKKMADPHVRVHINGKKSHGRDHYHELWRLLFEHIRIEHLHIRHMDKQGDFVRVEVEVTGHIDGRRETVESEFRIRTVNGVLRDVEIHFH | 1.2
DEHKKESKETAEIVMELRKTGDWDEFSRLADPNVKIDVDVNGKRINNIGWESFVEFVLKERDEWRLEDYKIRDIRVIDGVAEIDGEITGVFNGQREKREFRIIVVVVNGRLKSVQLKFK | 1.29
DEHKREMRILLQLWREFWLTGDWRNILKNADPDYRLTVNGRDFVGMELATEFLEIILRHLRVKHIILRHEELVDGVLHVEGEIDGNIDGKETIHENEINMFVYNGKIHEVELHLK | 1.36
DEHLEYVREIARLFWQLLSTGDEENLRKLFDPNARLDVNGQEFHGREEIIIFLRHWRMRSKDIRIHHVNVQGEKMEVDIHTDLEFEVGDFKYEEHTRVEIIVEKINGRWLVRHVKIR | 0.437
DEHNKLAILIVEILWHLWETGNEEELVKLADPNYKHDVNGKISVGREEFEKTTHYLLNHLRFKHRHVRDEKVQGNKFHVDGQLNIDVNGREVRFDLRVVYIIVNGRLRSEHIDIV | 1.71
DEHQEEIKEMFRRMIHALETGDEDFFNHLADPHVLFHEHFNGRSFELHGREEFSKWLQSHREEIRLRNVHYHDIRIYNGVVHFDGRIVWHQGDKTIDRKVHWRTFVIDGRAKKVEIHVK | 0.621
DEHQERIEEVLRDILEVLETGDWRKWHRLMDPHVLLIIFINGRKLSFHGMETVISHLQHEWRRVKGLQFELKHVELQGDYIHIDGHVRFNGQQTRIEIRIDIVDGKIHQLEFKFD | 1.53
DEHQERNRRALEEMNRILDTGDWEELTELADPHVRIHYGEFNLHGREDAHRFWKHIVERFKGIRVNIHDVKMVGNYVDVDGHLEIGDKEHKVRIIAFKINGRWLLHSMHFV | 1.38
DEHQKEIKEVVEMMRHAILTGDEETLERQMDPHAKIRINGVDYVGRRYLEILIRRVDHRRIHTRIRHVEIVDGRVITHLEERTVLHVGDKDIHVSHELEFVLLKIDGRWLVTEMIIQ | 1.23
DEHQRMLELFMRLLMHSQETGDEKTLRELADPNARIHVGDKDYVGREHAAKLLVEWRIHDLELRTVDVQGDKIQWEGELEGEYNGKQDRYETYIIVTKIDGRWLEERVIFK | 1.3

— the NTF2 design screens of Basanta et al. (2020)
